Residue numbers refer to the chain shown, from its start.
B1: 10B10-TCB (bispecific antibody)
light 1: DIQLTQSPHSLSASLGETVSIECLASEGISNYLAWFHQKPGKSPQLLIYYASSLQDGVPSRFSGSGSGTQYSLKISNMQPEDEGVYYCQQGYKYPLTFGSGTKLEIKRTVAAPSVFIFPPSDRKLKSGTASVVCLLNNFYPREAKVQWKVDNALQSGNSQESVTEQDSKDSTYSLSSTLTLSKADYEKHKVYACEVTHQGLSSPVTKSFNRGEC
light 2: EVQLLESGGGLVQPGGSLRLSCAASGFTFSTYAMNWVRQAPGKGLEWVSRIRSKYNNYATYYADSVKGRFTISRDDSKNTLYLQMNSLRAEDTAVYYCVRHGNFGNSYVSWFAYWGQGTLVTVSSASVAAPSVFIFPPSDEQLKSGTASVVCLLNNFYPREAKVQWKVDNALQSGNSQESVTEQDSKDSTYSLSSTLTLSKADYEKHKVYACEVTHQGLSSPVTKSFNRGEC
heavy 1: EVQLVESGGGLVQPGRSMKLSCAASGFTFTNFYMAWVRQAPTKALEWVASINTGGGYTYYRDSVKGRFTVSRDNTRSTLYLQMDSLRSEETATYYCARHLTYYGRYYYFDYWGQGVMVTVSSASTKGPSVFPLAPSSKSTSGGTAALGCLVEDYFPEPVTVSWNSGALTSGVHTFPAVLQSSGLYSLSSVVTVPSSSLGTQTYICNVNHKPSNTKVDEKVEPKSCDKTHTCPPCPAPEAAGGPSVFLFPPKPKDTLMISRTPEVTCVVVDVSHEDPEVKFNWYVDGVEVHNAKTKPREEQYNSTYRVVSVLTVLHQDWLNGKEYKCKVSNKALGAPIEKTISKAKGQPREPQVCTLPPSRDELTKNQVSLSCAVKGFYPSDIAVEWESNGQPENNYKTTPPVLDSDGSFFLVSKLTVDKSRWQQGNVFSCSVMHEALHNHYTQKSLSLSPGK
heavy 2: not shown
B2: P1AE5733 (antibody, V domains shown)
VH: EVQLVESGGGLVQPGRSLKLSCAASGFSFSNYGMAWVRQAATKGLEWVASISTGGGNTYYRDSVKGRFIVSRDNAKNTQYLQMDSLRSEDTATYYCTRHDRGGLYWGQGVMVTVSS
VL: DIVMTQAPLSVSVTPGESASISCRSSKSLLHSNGITYVYWYFQKPGKSPQVLIYRMSNLASGVPDRFSGSGSETDFTLKISRVEAEDVGIYHCGQLLENPYTFGAGTELELK
B3: P1AE5739 (antibody, V domains shown)
VH: EVQLVESGGGVVQPGRSLRLSCAASGFSFSNYGMAWVRQAPGKGLEWVASISTGGGNTYYRDSVKGRFTISRDNAKNTLYLQMNSLRAEDTAVYYCTRHDRGGLYWGQGTMVTVSS
VL: DIVMTQSPLSLPVTPGEPASISCRSSKSLLHSNGITYVYWYLQKPGQSPQVLIYRMSNLASGVPDRFSGSGSGTDFTLKISRVEAEDVGVYHCGQLLENPYTFGQGTKLEIK
B4: P1AE5743 (antibody, V domains shown)
VH: B3 VH
VL: EIVLTQSPGTLSLSPGERATLSCRASKSLLHSNGITYVYWYQQKPGQAPRLLIYRMSNLASGIPDRFSGSGSGTDFTLTISRLEPEDFAVYHCGQLLENPYTFGQGTKLEIK
B5: P1AE5742 (antibody, V domains shown)
VH: B3 VH
VL: DIVMTQSPDSLAVSLGERATINCKSSKSLLHSNGITYVYWYQQKPGQPPKLLIYRMSNLASGVPDRFSGSGSGTDFTLTISSLQAEDVAVYHCGQLLENPYTFGQGTKLEIK
B6: P1AE5751 (antibody, V domains shown)
VH: B3 VH with R61A
VL: B3 VL with Q47K
B7: P1AE5741 (antibody, V domains shown)
VH: B3 VH
VL: B3 VL with V51L, L59R
B8: P1AE5747 (antibody, V domains shown)
VH: B3 VH with E1Q, R61A, A75S
VL: B5 VL
B9: P1AE5749 (antibody, V domains shown)
VH: B3 VH with E1Q, R61A, A75S
VL: B4 VL
B10: P1AE5764 (antibody, V domains shown)
VH: B3 VH with V11L, R16G, R61A
VL: B4 VL
B11: P1AE5756 (antibody, V domains shown)
VH: B3 VH with V11L, R16G
VL: B3 VL with Q47K
B12: P1AE5740 (antibody, V domains shown)
VH: B3 VH
VL: B3 VL with Q47K
B13: P1AE5755 (antibody, V domains shown)
VH: B3 VH with V11L, R16G
VL: B3 VL
B14: P1AE5746 (antibody, V domains shown)
VH: B3 VH with E1Q, R61A, A75S
VL: B3 VL with V51L, L59R
B15: P1AE5744 (antibody, V domains shown)
VH: B3 VH with E1Q, R61A, A75S
VL: B3 VL
B16: P1AE5738 (antibody, V domains shown)
VH: B3 VH with E1Q, A75S
VL: B4 VL
B17: P1AE5754 (antibody, V domains shown)
VH: B3 VH with R61A
VL: B4 VL
B18: P1AE5763 (antibody, V domains shown)
VH: B3 VH with V11L, R16G, R61A
VL: B5 VL
B19: P1AE5757 (antibody, V domains shown)
VH: B3 VH with V11L, R16G
VL: B3 VL with V51L, L59R
B20: P1AE5736 (antibody, V domains shown)
VH: B3 VH with E1Q, A75S
VL: B3 VL with V51L, L59R
B21: P1AE5759 (antibody, V domains shown)
VH: B3 VH with V11L, R16G
VL: B4 VL
B22: P1AE5752 (antibody, V domains shown)
VH: B3 VH with R61A
VL: B3 VL with V51L, L59R
B23: P1AE5735 (antibody, V domains shown)
VH: B3 VH with E1Q, A75S
VL: B3 VL with Q47K
B24: P1AE5753 (antibody, V domains shown)
VH: B3 VH with R61A
VL: B5 VL
B25: P1AE5758 (antibody, V domains shown)
VH: B3 VH with V11L, R16G
VL: B5 VL
B26: P1AE5745 (antibody, V domains shown)
VH: B3 VH with E1Q, R61A, A75S
VL: B3 VL with Q47K
B27: P1AE5734 (antibody, V domains shown)
VH: B3 VH with E1Q, A75S
VL: B3 VL
B28: P1AE5760 (antibody, V domains shown)
VH: B3 VH with V11L, R16G, R61A
VL: B3 VL
B29: P1AE5750 (antibody, V domains shown)
VH: B3 VH with R61A
VL: B3 VL
B30: P1AE5761 (antibody, V domains shown)
VH: B3 VH with V11L, R16G, R61A
VL: B3 VL with Q47K
B31: P1AE5762 (antibody, V domains shown)
VH: B3 VH with V11L, R16G, R61A
VL: B3 VL with V51L, L59R
B32: P1AE5737 (antibody, V domains shown)
VH: B3 VH with E1Q, A75S
VL: B5 VL

target: T1, human GPRC5D (human, UniProt Q9NZD1 1-345); assay: cell-based or functional assay
T1 sequence (Q9NZD1 whole entry): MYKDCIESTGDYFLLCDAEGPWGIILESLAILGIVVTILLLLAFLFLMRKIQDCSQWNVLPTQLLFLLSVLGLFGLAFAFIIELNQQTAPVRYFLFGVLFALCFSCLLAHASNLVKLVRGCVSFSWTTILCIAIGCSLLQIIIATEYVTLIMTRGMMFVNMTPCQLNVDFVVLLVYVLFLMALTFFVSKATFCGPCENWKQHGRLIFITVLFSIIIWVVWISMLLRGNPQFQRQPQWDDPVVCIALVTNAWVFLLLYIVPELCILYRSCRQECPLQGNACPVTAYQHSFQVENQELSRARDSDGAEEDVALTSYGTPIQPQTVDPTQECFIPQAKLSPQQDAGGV

Row | Binder | EC50 of in vitro killing, AMO-1 cells | EC50 of in vitro killing, EJM cells | EC50 of in vitro killing, L363 cells | EC50 of in vitro killing, MOLP-2 cells | EC50 of in vitro killing, NCI-H929 cells | EC50 of in vitro killing, OPM-2 cells | EC50 of in vitro killing, RPMI cells
1 | B1 | 0.084 nM | 0.079 nM | 0.034 nM | 0.16 nM | 0.056 nM | 0.028 nM | 0.965 nM

target: T1, human GPRC5D; assay: cell-based or functional assay; remark: another data set of the same source

Row | Binder | CAR-J2 EC50 (PGLALA-CAR-J activation, L363 target cells)
2 | B2 | 0.00265 µg/mL
3 | B3 | 0.0235 µg/mL
4 | B4 | 0.583 µg/mL
5 | B5 | 0.0619 µg/mL
6 | B6 | 0.00644 µg/mL
7 | B7 | 0.0014 µg/mL
8 | B8 | 0.183 µg/mL
9 | B9 | 0.0826 µg/mL
10 | B10 | 0.0782 µg/mL
11 | B11 | 0.17 µg/mL
12 | B12 | 0.00896 µg/mL
13 | B13 | 0.152 µg/mL
14 | B14 | 0.514 µg/mL
15 | B15 | 0.00363 µg/mL
16 | B16 | 0.397 µg/mL
17 | B17 | 0.00889 µg/mL

Row | Binder | CAR-J2 EC50 (PGLALA-CAR-J activation, L363 target cells)
18 | B18 | 0.00547 µg/mL
19 | B19 | 0.145 µg/mL
20 | B20 | 0.00138 µg/mL
21 | B21 | 0.0157 µg/mL
22 | B22 | 0.509 µg/mL
23 | B23 | 0.0821 µg/mL
24 | B24 | 0.03 µg/mL
25 | B25 | 0.19 µg/mL
26 | B26 | 0.00162 µg/mL
27 | B27 | 0.0415 µg/mL
28 | B28 | 0.19 µg/mL
29 | B29 | 0.0206 µg/mL
30 | B30 | 0.0746 µg/mL
31 | B31 | 0.0842 µg/mL
32 | B32 | 0.00295 µg/mL

From patent US20210054094A1 (Hoffmann-La Roche, published 2021)
